Residue numbers refer to the chain shown, from its start. Each block holds one binder with its values, some of them ahead of it.
Target: monomeric FcRn (Sinobiological inc., CT009-H08H) (human;, UniProt P55899 24-297; P61769 21-119)
Test: Biacore SPR; pH 6.0

- Kd: 6.99 nM
B1: EFc88 (protein)
chain: DKTHTCPPCSAPELLGGPSVFLFPPKPKDTLMISRTPEVTCVVVDVSHEDPEVKFNWYVDGVEVHNAKTKPREELYNSTYRVVSVLTVLHQDWLNGKEYMCKVSNKALPAPIEKTISKAKGQPREPQVYTLPPSREELTKNQVSLTCLVKGFYPSDIAVEWESNGQPENNYKTTPPVLDSDGSFILYSKLTVDKSRWQQGNVFSCSVLHEALHNHYTQKSLSLSPGK

- Kd: 6.68 nM
B2: trastuzumab Fc variant EFc82 (antibody)
Fc: B1 chain with S10Q, F23Y, K26E, L75Q, M100K, E136D, N141S, N164I, I185F

— patent US20200223938A1 (published 2020)
